Measurements reported in paper PMC2018632 (Nucleic Acids Research, 2007).

Molecular target: T1, Escherichia coli uracil-DNA glycosylase (Escherichia coli, UniProt P12295 1-229)
T1 sequence: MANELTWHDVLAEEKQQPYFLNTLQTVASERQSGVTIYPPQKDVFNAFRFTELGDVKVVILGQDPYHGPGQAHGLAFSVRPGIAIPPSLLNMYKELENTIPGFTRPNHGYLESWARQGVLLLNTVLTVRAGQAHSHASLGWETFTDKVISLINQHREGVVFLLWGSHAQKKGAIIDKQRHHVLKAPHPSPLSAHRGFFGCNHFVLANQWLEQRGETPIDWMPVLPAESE
Assay: native gel or EMSA

B1: Ugi from the Bacillus subtilis phage PBS2 (natural protein)
chain: MTNLSDIIEKETGKQLVIQESILMLPEEVEEVIGNKPESDILVHTAYDESTDENVMLLTSDAPEYKPWALVIQDSNGENKIKML
  binding result: binds
